Results: patent US8936806B2, “Periostin induces proliferation of cardiomyocytes and promotes cardiac regeneration” (Children's Medical Center Corporation, priority 2007, dated 2015)
Where “and” joins values, the source holds several entries; their conditions need not be identical. Identical values can stand only once. Entries after “also recorded” stand apart in the source; their conditions may differ.

Columns and labels:
[1] = system: Adult male Sprague-Dawley rats; test: Rat model of myocardial infarction: analysis of myocardial regeneration (histology, immunofluorescence); format: in vivo
Method: Horizontal cryosections of 14 μm thickness spaced at 1 mm intervals were analyzed. To determine infarct size, Masson's Trichrome-stained sections were analyzed at 1× magnification. The infarct border zone was defined as myocardial tissue within 0.5 mm of the fibrous scar tissue. Fibrosis and cardiomyocyte cross-sectional area were determined after staining with Masson's Trichrome at 10× and 40× magnification, respectively, and quantified using the Metamorph software package. BrdU-positive cardiac fibroblast nuclei were determined at 5 cross-sections per heart at the level of the myocardial infarction. Cardiomyocyte nuclei were counted using the optical dissector method (Howard, C. V. & Reed, M. Unbiased Stereology: Three-Dimensional Measurement In Microscopy, (BIOS Scientific Publishers, Oxford, 2005)) on troponin T and DAPI-stained sections in 32-60 random sample volumes of […] per heart. BrdU-positive cardiomyocyte nuclei were quantified on 16-20 sections per heart. […] Adult male Sprague-Dawley rats (300 gm, Charles River Laboratories) underwent experimental myocardial infarction as described (del Monte, F. et al. Abrogation of ventricular arrhythmias in a model of ischemia and reperfusion by targeting myocardial calcium cycling. Proc Natl Acad Sci USA 101, 5622-7 (2004)). The survival rate was 67%. Gelfoam loaded with 100 μg of recombinant periostin or with buffer were applied over the myocardial infarction at the time of surgery. […] Echocardiography and hemodynamic catheterization were performed as described (Prunier, F. et al. Am J Physiol Heart Circ Physiol (2006)). Horizontal cryosections of 14 μm thickness spaced at 1 mm intervals were analyzed. Masson's Trichrome-stained sections were analyzed at 10× magnification to determine infarct size (Pasumarthi, K. B., et al. Circ Res 96, 110-8 (2005)), defined as [coronal infarct perimeter (epicardial+endocardial)/total coronal perimeter (epicardial+endocardial)]×100 and thinning index (Engel, F. B., et al. Proc Natl Acad Sci USA 103, 15546-51 (2006)), defined as minimal infarct wall thickness/maximal septal wall thickness. The infarct border zone was defined as myocardial tissue within 0.5 mm of the fibrous scar tissue. Fibrosis was determined on 10× images of Masson's Trichrome stainings and quantified using the Metamorph software package (Molecular Devices Corp.). Cardiomyocyte cross-sectional area was determined after staining with Masson's Trichrome at 40× magnification and quantified using the Metamorph software package. BrdU-positive cardiac fibroblast nuclei were determined at 5 cross-sections per heart at the level of the myocardial infarction. Cardiomyocyte nuclei were counted on troponin T and DAPI-stained sections in 32-60 random sample volumes of 84,500 μm^3 per heart. BrdU-positive cardiomyocyte nuclei were quantified on 16-20 sections per heart. Capillaries and stem cells were detected with antibodies against von Willebrand factor (vWF) and c-kit, respectively, and quantified at 5 cross-sections per heart at the level of the myocardial infarction.

[2] = system: Adult male Sprague-Dawley rats; test: Cardiomyocyte cell cycle activity in vivo after intramyocardial injection; parameters: species or system rat; LVFW CM nuclei: unit not given here
Method: Experiments were performed in accordance with institutional guidelines of Massachusetts General Hospital. Injections and analyses were performed in a blinded fashion. Adult male Sprague-Dawley rats (300 gm, Charles River Laboratories) underwent thoracotomy and received intramyocardial injections of 50 μg of recombinant human periostin consisting of the fas1-4 domains, 50 μg of rat fibronectin, or 100 μL of 100 mM sodium acetate as a control (5 rats per group). The survival rate for this procedure was 80%. Injected periostin was confirmed by detection with a polyclonal antibody directed against human periostin (Abcam) and visualized by immunofluorescence microscopy. Intraperitoneal injections of BrdU (70 μmol/kg body weight) with a tissue half life of 2 hr were given every 48 hr, and rats were sacrificed after the third injection. Horizontal cryosections of 14 μm thickness spaced at 1 mm intervals were analyzed by laser scanning immunofluorescence microscopy. BrdU-positive cardiomyocyte nuclei and cytokineses were quantified on 16-20 sections per heart. Fibrosis and cardiomyocyte cross-sectional area were determined on 5 Masson's Trichrome-stained sections at the level of the injection at 40× magnification and quantified using the Metamorph software package (Molecular Devices Corp., Downingtown, Pa.).

[3] = 1 week, infarct and border zone
[4] = 1 week after intracardiac injection

B1: periostin: Recombinant periostin, purified from HEK293 cells expressing the full-length human cDNA; secreted protein of 834 amino acids (Seq ID. No. 1) (protein, listed as Homo sapiens)
chain: MIPFLPMFSLLLLLIVNPINANNHYDKILAHSRIRGRDQGPNVCALQQILGTKKKYFSTCKNWYKKSICGQKTTVLYECCPGYMRMEGMKGCPAVLPIDHVYGTLGIVGATTTQRYSDASKLREEIEGKGSFTYFAPSNEAWDNLDSDIRRGLESNVNVELLNALHSHMINKRMLTKDLKNGMIIPSMYNNLGLFINHYPNGVVTVNCARIIHGNQIATNGVVHVIDRVLTQIGTSIQDFIEAEDDLSSFRAAAITSDILEALGRDGHFTLFAPTNEAFEKLPRGVLERFMGDKVASEALMKYHILNTLQCSESIMGGAVFETLEGNTIEIGCDGDSITVNGIKMVNKKDIVTNNGVIHLIDQVLIPDSAKQVIELAGKQQTTFTDLVAQLGLASALRPDGEYTLLAPVNNAFSDDTLSMVQRLLKLILQNHILKVKVGLNELYNGQILETIGGKQLRVFVYRTAVCIENSCMEKGSKQGRNGAIHIFREIIKPAEKSLHEKLKQDKRFSTFLSLLEAADLKELLTQPGDWTLFVPTNDAFKGMTSEEKEILIRDKNALQNIILYHLTPGVFIGKGFEPGVTNILKTTQGSKIFLKEVNDTLLVNELKSKESDIMTTNGVIHVVDKLLYPADTPVGNDQLLEILNKLIKYIQIKFVRGSTFKEIPVTVYTTKIITKVVEPKIKVIEGSLQPIIKTEGPTLTKVKIEGEPEFRLIKEGETITEVIHGEPIIKKYTKIIDGVPVEITEKETREERIITGPEIKYTRISTGGGETEETLKKLLQEEVTKVTKFIEGGDGHLFEDEEIKRLLQGDTPVRKLQANKKVQGSRRRLREGRSQ
- number of c-kit-positive cells in infarct and border zone vs control ([1]; 1 and 12 weeks): did not differ
- mitosis (H3P), of cardiomyocyte nuclei ([1]; 1 week): 0.1±0.01%
- infarct size vs control ([1]; 1 week after MI): same infarct size
- number of BrdU-positive cardiac fibroblasts ([1]; 1 week after MI): decreased
- number of cardiomyocyte nuclei vs control ([1]; 1 week after MI): same number of nuclei
- proportion of cycling cardiomyocytes vs proportion of apoptotic cardiomyocytes ([1]; 1 week after MI): five-fold higher
- arteriolar density vs control [1, 3]: did not differ
- capillary density vs control [1, 3]: did not differ
- mitosis (H3P), of cardiomyocyte nuclei ([1]; 12 weeks): 0.2±0.5%
- fibrotic tissue ([1]; 12 weeks after MI): significantly decreased
- heart weight vs buffer-treated rats ([1]; 12 weeks after MI): similar
- increase in arteriolar density compared with control hearts ([1]; 12 weeks after MI): 1.5 fold
- increase in capillary density compared with control hearts ([1]; 12 weeks after MI): 4 fold
- infarct size smaller compared with control hearts ([1]; 12 weeks after MI): 50%
- left ventricular free wall thickness vs control ([1]; 12 weeks after MI): thicker
- more cardiomyocyte nuclei than control hearts ([1]; 12 weeks after MI): 6.2×10^6
- proportion of cycling cardiomyocytes vs proportion of apoptotic cardiomyocytes ([1]; 12 weeks after MI): 100 fold
- scar volume vs control ([1]; 12 weeks after MI): smaller scar volume
- septum thickness vs control ([1]; 12 weeks after MI): thinner
- thinning index ([1]; 12 weeks after MI): improved thinning index
- increased capillary density compared with control animals ([1]; FIG. 11A, time not given, legend b80: one week): 4 fold
- number of stem cells (c-kit) vs buffer treated hearts ([1]; FIG. 11B): similar
- calculated new cardiomyocyte nuclei from BrdU rate ([1]; after 12 weeks): 7.2×10^6 per heart
- cross-sectional cardiomyocyte area vs control ([1]; after MI): smaller
- increase of DNA synthesis compared with buffer-treated animals ([1]; after MI): 10 fold
- left ventricular cardiomyocyte nuclei ([1]; after MI (FIG. 9i)): 18.8 million
- cardiomyocyte apoptosis vs control ([1]; after MI, 1 and 12 weeks): without changing the rate of apoptosis; also recorded: without affecting apoptosis; also recorded: similar
- DNA synthesis, cardiomyocytes per heart ([1]; after MI, 3 BrdU injections): 5,268±402 per heart
- BrdU uptake, of cardiomyocytes ([1]; infarct and border zone, 1 week): 0.6±0.07%
- BrdU uptake, of cardiomyocytes ([1]; infarct and border zone, 12 weeks): 1±0.3%
- calculated cardiomyocyte nuclei generated from rate of mitosis ([1]; over 12 weeks): 5.5×10^6
- cardiomyocyte mitoses (metaphase chromosomes) ([1]; periostin-treated hearts, n=6): 4,737±770
- cell-cycle reentry, of all cardiomyocytes in the infarct border zone ([1]; rat, in vivo): 0.6-1%
- rate of cardiomyocytes entering the cell cycle ([1]; rat, in vivo): 3,727 per hour
- cell-cycle reentry of differentiated cardiomyocytes ([1]; single injection of BrdU, labeling for 6.4 h, n=3): 23,852±1,709 per heart
- BrdU-labeled cardiomyocytes / cell cycle re-entry in the infarct border zone ([1]; three injections of BrdU): 1.4% and 1.4±0.5%
- LVFW BrdU-positive CM nuclei [2, 4]: 0.051 ± 0.0021 %
- LVFW CM nuclei [2, 4]: 10.3 ± 0.3 10^$$ per heart
- LVFW cytokineses [2, 4]: 0.008±0.002%
- LVFW BrdU-positive CM nuclei ([2]; 1 week after intracardiac injection, 3 BrdU injections): 5,322±363 per heart
- LVFW BrdU-positive CM nuclei ([2]; 1 week after intracardiac injection, 3 BrdU injections, listed as PN): 5411 ± 376 per heart
- LVFW myocardial volume ([2]; 1 week after intracardiac injection, 50 μg periostin (fas1-4 domains) or 50 μg rat fibronectin): 211.3 ± 12.3 mm^3
- LVFW cytokineses ([2]; 1 week after intracardiac injection, listed as Periostin): 821±176 per heart
- fibrosis after intramyocardial injection ([2]; FIG. 4a): did not induce
- hypertrophy (cardiomyocyte cross-sectional area) after intramyocardial injection ([2]; FIG. 4b): did not induce
- H3P-positive binucleated cardiomyocytes ([2]; dispersed isolated cardiomyocytes, in vivo): 0.04±0.01%
- DNA synthesis, of cardiomyocyte nuclei in the injected area ([2]; rat, in vivo): 0.7±0.1%
- cytokinesis, of cardiomyocyte nuclei in the injected area ([2]; rat, in vivo): 0.1±0.03%
- increase of DNA synthesis compared with buffer-injected hearts ([2]; rat, in vivo): 8 fold
- increase of cytokinesis compared with buffer-injected hearts ([2]; rat, in vivo): 11.5 fold
